Experimental data published in the DeepSol protein solubility set.

Assay: soluble on expression in E. coli; label from the status in PepcDB or PDB records

Sequence | soluble on expression in E. coli
VDSVFVVGHKNLDMDALGASVGMQAFANNIIEHAAYAVYDEDSMSHDVARAVNRLKEDGHTQLLTVKESIEQVSDNSLLVMVDHSKLQLTLSRELYNKFTEVIVIDHHRRDDDFPENAILTFIESGASSASELVTELLQFQNGKYHLNKIQASIVMAGIMLDTKSFSTRVTSRTFDVASYLRTLGSDNVEIQNISALDF | not soluble
SEKADEKTYDLRDPSQLVALFTENENEDFIKISLSKYIESLIQSHNMASYNIVFLYDETRSISRYHSNQIYEAASSATDKKDILLILHSGGGQIEPAYLISKTCKSLTKKKFVVGIPRRAKSAATLISLGADEIHMGLMSELGPIDPQIGGYPALGLSNALNTLAGLACRFPDSADMFAKYLTDNLNLKDLGYFERVSESASQYAERLLAGKKFPAPSTAQSLANHFVNHYKDHGFVIDSDEATNLLGSNIIKQNTAEYLFANELYKFLDFASF | not soluble
MKYTIEEIRQMQEGQTFDCKSILIEPKHLATIIVAMANADGGMIAVGISDKTRRIEGVNQDKEHLNDILRTPLDFCVPSVSVTTDYVPCTDAEGRDNRVLLMHIPASPRLHANQADEVFWRVGDKSRKLTFDERLQLMYDKGERYYEDSTAYDATLDDIDMDAVKAYMKRIGYGKSAMEYLQENKGFVTYKGDVPQVSAACILLFGKHPQTFFPRARVRFIKYFGTEEKVGREMNVIKDVTFDGRILEQIQKTVEYLETQVKEHSYLGEDGIFKTDREYPKFVIQEMVVNSVCHRDYSIKGTEIQIKMFDDRLVFETPGKLPGIVRTDNIRHTHFSRNPKIAEFLKAYDYVKEFGEGVDRMCRELSALGVKEPQYNLVAFIMKATVCAKVLEERQGTNHFDQKRPESDQKSDQMRIILELIKSNPNISRTELSEKTGLHDSSVKRRLKTLVDEGLIQRVGPDKGGQWKVIGSLLEHHHHHH | soluble
HYHGIAANPADIQHEFCTSAQSDLNETQWLLAAKSLGLKAKVVRQPIKRLAMATLPALVWCDDGNHFILAKTDGEGEHAQFLIQDLVTNKSAVLSFAEFSNRYSGKLILVASRASVLGSLAKFDFTWFIPAVIK | not soluble
MGKQLESRTIPPYEPKAGEEYMSPEQLAHFRKILEYQRAELSMEIDRAVHVMQEESTIFADPADRATQESDMALELRSRDRERKLIKKIDEIFTKIDSGEYGYCEKCGIEIGLKRLEARPTASLCIDCKTLDEIRERQMAK | not soluble
MGSDKIHHHHHHMIVALFALLASGCGHSQRTLEFRGICVDDPQGENGLYNPGRGFRLETAVDVLHEKDTPTEELNELSAKYVADSVSLSQSYFYLTYLIGKELSEENFRTMQAYFDELQKQGKKAVLRFAYERDFMGRSPVGPTGEQILAHLDQLKPFLEKNKDLILVVQAGMIGAWGEWHSSVQGLENSEETKAAVLEKLLSVVPAERNVQVRLPEFKNLLKDKPELYKRLSFHDDFIVIRPDRWDADMHEGTPKFDQIVAESPYLVVDGELPWGFWSVGADPDSPSAGWIIDGMQAARRLFLQHYTSLSIIHNYKEQHPNNRFDENNPPEYSMVVWKKTMITEDSLLQHHMPVSDSYFRKKDGTKVKRNMFDYIRDHLGYRIELQSLQLPSKFVSGKENVLKLSLKNRGFATVFGEHPVYFVLIDDAGEVTEFPTDANPKNWQPFEPKDSAYTSLMHTVDVSLELPASVTAGTYKLGLWIPDGSDRLRYNPRYAIHCANGDTDWWISKDGKYGVNVLTAVEVE | not soluble
MGSDKIHHHHHHMKNFIRKLIRALTAIRLETDRYKHSTLRIIINWLTAFLKDLFSAQEIRLYGLADPEDGANRIRQYVSKEMADRFYRKYNPGAAVPNIEDKFIFTTLCLQHHLPIPATYGIFKQGIVKTFDERIFQESSRFRDFIRELEPGEYLLKPNNGMLGLGLSILEIDDQGSLKFQGKSITADDLYRELCSIEVTLPASSKGDSVDMDFEGLLFQQRIANHPEITKLTGFKMLQTIRICTHVTDNNQVEILFAFMKLAGQEGLADAFNLGKTGNMLAKIDPATGKFCNVYAMDQQQGYLVETTHHAVTQANLLNFTVPHWQACLTLAMKLSTTFLPLRAVGWDIAITDNRPVVLEGNDNWVPVVPFDINIDKLKQYKLKS | not soluble
MNWYEKLSEYFPIEEMKSKAHMEALLKERSDIYHKDEGKHHILMFAEFDSFIFVDYLYVSKDARGQGLGGKLIAKLKKKNKPILLEVEPVDEDDTDTEKRLRFYQREHFKHAQSIGYRRRSLATNEVNKIEILYWSPKTESEEEILEAMKQTYENIHTYKDEKWYGESYEKTDEVLEIIDEEKQKNIFDQLS | not soluble
MGSDKIHHHHHHMSTELNTMALSVPQGAGLDGYIQSVNRIPMLTAEKEKALATRLYENSDLDAAKELIMSHLRFVVHVARSYSGYGLPQADLIQEGNIGLMKAVKRFDPSVGVRLVSFAVHWIKAEIHEYVLRNWRVVKVATTKAQRKLFFNLRKMKKRLGWFSQKEVETVANELGVSTKEVLEMETRMSAHDQAFELSSDDDDSKEGSAYSPAMYLEDKRSDLAAEIEAKDYENHTQQKLLGAMSHLDERSQDIVQSRWLSEDKTTLHDLAEKYEVSAERVRQLEQNAMKKLRLAMS | not soluble
GSHMLEMSGPRAGFYRQELNKTVWEVPQRLQGLRPVGSGAYGSVCSAYDARLRQKVAVKKLSRPFQSLIHARRTYRELRLLKHLKHENVIGLLDVFTPATSIEDFSEVYLVTTLMGADLNNIVKCQALSDEHVQFLVYQLLRGLKYIHSAGIIHRDLKPSNVAVNEDSELRILDFGLARQADEEMTGYVATRWYRAPEIMLNWMHYNQTVDIWSVGCIMAELLQGKALFPGSDYIDQLKRIMEVVGTPSPEVLAKISSEHARTYIQSLPPMPQKDLSSIFRGANPLAIDLLGRMLVLDSDQRVSAAEALAHAYFSQYHDPEDEPEAEPYDESVEAKERTLEEWKELTYQEVLSFKPPEPPKPPGSLEIEQ | soluble
MGSDKIHHHHHHMAYIIPSDISAAALAGAHGPELETLAGLKTALSSDYTVYHGVHWSYDYRGQIRFGEADFVVVNQAGEMVVIEQKNGRLEDTAEGLIKVYGNTRKDVQSQVRRSVENIREKMRAASGSPPPSIDYLIYCPDHRLVRLNAVGLDVSRIVSGATPADLAGRIRQILPPGSKGGATENVHAFLRDAFQVVADVHAHVKAHERSYTRLIGGIADIVDSIEMAPLRLRLRGAPGSGKTVVAHRLYERALARGRRPLMVCFNHPLAERLAASVSPGGRVTTWHGLCVNFLAERGLKPNFEDAARNRSFWPDLAELIIAEPVPDAWRFDTLIVDEGQDFEPGWIDILHLFLTDAADIVWLEDPAQELRGIGRNELPGFVGLSVRTNYRTPQSIARFVKRALGADFVAANDLPGLGVGVSTYGLEDEQAVHLSRIVPALVRQGFAPDQIVIVTLKGATTSVLSQMTRIGTHEVSHFTGAYGDDGRQVRSRGLIRFESVQRFKGQQAPAVIVVDVNPASDPNKAERHLRQLFSAFTRATIRLEILAQKDNPMTARLLGSL | not soluble
MSLEQHGNVVSVGLKLYNEILKETITRFKERRIEKKHSVNVEIENPPGRFFIPEDYVQNPVERLRLYRRLASSLDEEDLEEILEEMKDRFGEPPEEVKLLVDYFRLRVRASKLGIKKIRFDHSMVEIFPSRNSPFLNHPRYDRRSGSVVLYTRKDPVEFLMDMLKKEGHHHHHH | soluble
MAHHHHHHSTLRHSHEPSPYVQKGEDLSGQKLTPTIKSYRNMEFLNSYSGRMIRILCEFEEPKQRLQQHFIRTTVLFFGSARSMTQAQYDSTVQDIHSKLAAATDDSTKASLQNKLACLKKTQWMCKWVDVVENLARMVAEFSQKEQDMIIRSFRHIPDYFRLTPEDGSESLDDLQKRFHDLVVTTGGGPGFMEAANHGAESVPGAVTMGMGISLPFENGLNPHVTKGLAFEFHYFFTRKFWMMYSCRAIVIAPGGFGTLDEMFELLTLKQTKKIPSLPVVLLGKEFWQTVVNWQALANYGVISQEEIDSLLFTDSAEEAVEHIKDFYHRLASDSPSTE | soluble
MSEQQVQELEKKWYALQVEPGKENEAKENLLKVLELEGLKDLVDEVIVPAEEKVVIRAQGKEKYRLSLKGNARDISVLGKKGVTTFRIENGEVKVVESVEGDTCVNAPPISKPGQKITCKENKTEAKIVLDNKIFPGYILIKAHMNDKLLMAIEKTPHVFRPVMVGGKPVPLKEEEVQNILNQIKRGVKPSKVEFEKGDQVRVIEGPFMNFTGTVEEVHPEKRKLTVMISIFGRMTPVELDFDQVEKI | soluble
MKSAWMEKTYTIDGCAFHTQHRKGSSGVTIVFEAGYGTSSETWKPLMADIDDEFGIFTYDRAGIGKSGQSRAKRTADQQVKELESLLKAADVKPPYLAVSHSYGAVITGLWACKNKHDIIGMVLLDPALGDCASFTFIPEEMHKSHTRKMMLEGTHAEFSKSLQELKKRQVHLGNMPLLVLSSGERTEKFAAEQEWQNLHSSILSLSNQSGWIQAKNSSHNIHHDEPHIVHLAIYDVWCAACQQAAPLYQAVN | not soluble
MVDFKMTKEGLVLLIKDYQNLEEVLNAISARITQMGGFFAKGDRISLMIENHNKHSQDIPRIVSHLRNLGLEVSQILVGSTVEGKENDLKVQSRTTVESTGKVIKRNIRSGQTVVHSGDVIVFGNVNKGAEILAGGSVVVFGKAQGNIRAGLNEGGQAVVAALDLQTSLIQIAGFITHSKGEENVPSIAHVKGNRIVIEPFDKVSFERSE | soluble
MGSDKIHHHHHHMFFYNIHQPMKTLIENLTSDLLPNQIFQTGFSFLIILKGNSLLKLDSNVLIFIMSGTMKVSSAQQELATVRERHIFFWDKEDDYTCEMLSDSQVILFAFGDLIVHDLLTFRPFGAISDSSVSKDVGLKFAEPLNSFLQLLAQYMEMNLYDLSLYIAKQRELFYILNSVYNEQELAILFSSLTEQSSRFKEQILENYLSAKNVGELASLLGYGVTNFRAKFKEQFGVSVYRWLLNRKSQHIIYRITVYGDEFSQIIDDFGFSSPSHFNKFCRSQYGLTPCELRKKLKTNNNS | not soluble
MTEPFIVRRETQIAAPRATVFAYLTDPEKILSWMGSDATTEPHPGGLYLLKGIGPRGAAARGAFREVVPVHRLAYTFGWEGGQEVPPGSSLIEIDLIERDGGTLLRMTHSGLPTEEQAAAHAKGWAHYLERLTTAAAGNDPGPDNGVSTKSLEHHHHHH | soluble
HQWQADEEAVRSATCSFSVKYLGCVEVFESRGMQVCEEALKVLRQSRRRPVRGLLHVSGDGLRVVDDETKGLIVDQTIEKVSFCAPDRNHERGFSYICRDGTTRRWMCHGFLACKDSGERLSHAVGCAFAVCLER | soluble
MGSDKIHHHHHHLPSARLSPRLSSPAGCRQTEWSQMPEAFIELRAITKRFSGVCALDALSLTINKGEIHCLAGENGSGKSTVIKVMAGVYQPDGGEILINGAPVRALTPIEAVRRNIQVIYQDFSLFGNLTVAENLALCGELQQKRKLADWKRIRAIGRQALDRLGVDIDLEVDVERLPTSSRQIVAIARALMSDAKLLIMDEPTTALTGREVDALFRIVKDIQAQGIAVLFVSHKMREMLEISERLTVIRNGRTVIDGPTSAFDESAVTRHMTGLDILSEGYAWAGSPEAVPRLEVRGLSLPGAFEDLSLAIRPGEIVGLSGLLGSGRTEFALSLFGMMPPAAGQVLVDGAQIAPRSVQDAIAEGITYVPEDRLTEGLFLTQSIDRNILATSYERLAPRGVIDRAKAAMQSAGMIKAMQIATPTGEKPVGQLSGGNAQRVVLARWLLTDAKVLILNGPTVGVDVGSKAEIHRKIRELASAHGLAVLMISDDVLELVQNTNRIVLMHRGRFVDDLPTATVSEQSINDLLKSFT | not soluble
